The target in assay [1] is T1, human ANGPT2 (R&D Systems) (human, UniProt O15123 68-496, limits assumed).
T1 construct: Bought reagent; also called hANGPT2; Angiopoietin-2
T1 sequence (looked up): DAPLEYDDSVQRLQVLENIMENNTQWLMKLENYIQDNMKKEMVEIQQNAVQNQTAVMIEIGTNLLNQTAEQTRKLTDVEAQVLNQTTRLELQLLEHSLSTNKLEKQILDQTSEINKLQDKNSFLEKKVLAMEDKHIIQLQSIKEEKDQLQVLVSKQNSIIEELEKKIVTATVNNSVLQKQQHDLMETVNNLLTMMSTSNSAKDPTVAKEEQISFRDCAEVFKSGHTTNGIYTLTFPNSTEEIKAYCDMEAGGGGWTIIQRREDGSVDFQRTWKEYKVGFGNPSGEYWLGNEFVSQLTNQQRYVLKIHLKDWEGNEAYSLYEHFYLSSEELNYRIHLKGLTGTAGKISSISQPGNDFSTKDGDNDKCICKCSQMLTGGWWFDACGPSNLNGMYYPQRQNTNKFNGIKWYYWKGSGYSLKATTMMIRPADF
The assay is described as follows: cellular FACS IGF-1R-ANGPT2 bridging assay on I24 cells; antibody on cells, then ANGPT2, detected with biotinylated anti-ANGPT2 and Streptavidin-PE. The procedure: (§1) The assay principle is depicted in FIG. 10.
(§2) Briefly, 5×10E5 I24 cells per FACS tube were incubated with total purified antibody mix and incubated on ice for 1 h (titration 160 μg/ml mix). The respective purified antibodies wildtype <IGF-1R> and <ANGPT2> were applied to the I24 cells as controls. Unbound antibody was washed away with 4 ml ice cold PBS (Gibco)+2% FCS (Gibco), cells were centrifuged (5 min at 400 g) and bound bispecific antibody was detected with 50 μl 2 μg/mL human ANGPT2 (R&D Systems) for 1 h on ice. Subsequently, unbound ANGPT2 was washed away once or twice with 4 ml ice cold PBS (Gibco)+2% FCS (Gibco), cells were centrifuged (5 min at 400 g) and bound ANGPT2 was detected with 50 μl 5 μg/mL <ANGPT2>mIgG1-Biotin antibody (BAM0981, R&D Systems) for 45 min on ice; alternatively, cells were incubated with 50 μl 5 μg/mL mIgG1-Biotin-Isotype control (R&D Systems). Unbound detection antibody was washed away with 4 ml ice cold PBS (Gibco)+2% FCS (Gibco), cells were centrifuged (5 min at 400 g) and bound detection antibody was detected with 50 μl 1:400 Streptavidin-PE conjugate (Invitrogen/Zymed) for 45 min on ice protected from light. Unbound Streptavidin-PE conjugate was washed away with 4 ml ice cold PBS+2% FCS. […]

In assay [2] the target is T2, recombinant human IGF-1R on I24 cells (NIH3T3 cells expressing recombinant human IGF-1R) (human, UniProt P08069 31-1367).
T2 construct: whole, on cells; also called IGF-1R in I24 cells
The assay is described as follows: cellular FACS IGF-1R-ANGPT2 bridging assay on I24 cells; antibody on cells, washed, then ANGPT2, detected with biotinylated anti-ANGPT2 and Streptavidin-PE. The procedure:
as §1, §2

B1: wildtype <IGF-1R> antibody (antibody, V domains shown)
VH: QVELVESGGGVVQPGRSQRLSCAASGFTFSSYGMHWVRQAPGKGLEWVAIIWFDGSSTYYADSVRGRFTISRDNSKNTLYLQMNSLRAEDTAVYFCARELGRRYFDLWGRGTLVSVSS
VL: EIVLTQSPATLSLSPGERATLSCRASQSVSSYLAWYQQKPGQAPRLLIYDASKRATGIPARFSGSGSGTDFTLTISSLEPEDFAVYYCQQRSKWPPWTFGQGTKVESKR
notes: Human IgG1/kappa antibody described in WO 2005/005635; also called <IGF-1R> wildtype antibody; <IGF-1R> control antibody
On to B1, for which the binding result in assay [1] was “no binding (tested: 2 µg/mL human ANGPT2)”.

B2: monospecific, bivalent <ANGPT2> wildtype antibody (antibody, V domains shown)
VH: EVQLVQSGGGVVQPGRSLRLSCAASGFTFSSYGMHWVRQAPGKGLEWVSYISSSGSTIYYADSVKGRFTISRDNAKNSLYLQMNSLRAEDTAVYYCARDLLDYDILTGYGYWGQGTLVTVSS
VL: not shown
notes: Human IgG1/kappa antibody described in WO 2006/045049; also called wildtype <ANGPT2> antibody; <Ang-2> control antibody
Take B2: in assay [2], the binding result is reported as “no binding”.
